B1: Tissue-nonspecific alkaline phosphatase (TNALP): N230Q/N303Q (protein)
parent chain: MISPFLVLAIGTCLTNSLVPEKEKDPKYWRDQAQETLKYALELQKLNTNVAKNVIMFLGDGMGVSTVTAARILKGQLHHNPGEETRLEMDKFPFVALSKTYNTNAQVPDSAGTATAYLCGVKANEGTVGVSAATERSRCNTTQGNEVTSILRWAKDAGKSVGIVTTTRVNHATPSAAYAHSADRDWYSDNEMPPEALSQGCKDIAYQLMHNIRDIDVIMGGGRKYMYPKNKTDVEYESDEKARGTRLDGLDLVDTWKSFKPRYKHSHFIWNRTELLTLDPHNVDYLLGLFEPGDMQYELNRNNVTDPSLSEMVVVAIQILRKNPKGFFLLVEGGRIDHGHHEGKAKQALHEAVEMDRAIGQAGSLTSSEDTLTVVTADHSHVFTFGGYTPRGNSIFGLAPMLSDTDKKPFTAILYGNGPGYKVVGGERENVSMVDYAHNNYQAQSAVPLRHETHGGEDVAVFSKGPMAHLLHGVHEQNYVPHVMAYAACIGANLGHCAPASSAGSLAAGPLLLALALYPLSVLF
B2: Tissue-nonspecific alkaline phosphatase (TNALP): N140Q/N430D (protein)
parent chain: B1 parent chain
B3: Tissue-nonspecific alkaline phosphatase (TNALP): heterodimeric N140Q/N230Q (protein)
parent chain: B1 parent chain
B4: Tissue-nonspecific alkaline phosphatase (TNALP): heterodimeric N271Q (protein)
parent chain: B1 parent chain
B5: Tissue-nonspecific alkaline phosphatase (TNALP): heterodimeric N140Q/N430D (protein)
parent chain: B1 parent chain
B6: Tissue-nonspecific alkaline phosphatase (TNALP): heterodimeric N430D (protein)
parent chain: B1 parent chain
B7: Tissue-nonspecific alkaline phosphatase (TNALP): N271Q/N430D (protein)
parent chain: B1 parent chain
B8: Tissue-nonspecific alkaline phosphatase (TNALP): N140Q/N230Q/N430D (protein)
parent chain: B1 parent chain
B9: Tissue-nonspecific alkaline phosphatase (TNALP): heterodimeric N303Q (protein)
parent chain: B1 parent chain
B10: Tissue-nonspecific alkaline phosphatase (TNALP): N303Q/N430D (protein)
parent chain: B1 parent chain
B11: Tissue-nonspecific alkaline phosphatase (TNALP): N140Q/N303Q (protein)
parent chain: B1 parent chain
B12: Tissue-nonspecific alkaline phosphatase (TNALP): heterodimeric N230Q (protein)
parent chain: B1 parent chain
B13: Tissue-nonspecific alkaline phosphatase (TNALP): heterodimeric N271Q/N430D (protein)
parent chain: B1 parent chain
B14: Tissue-nonspecific alkaline phosphatase (TNALP): N271Q/N303Q (protein)
parent chain: B1 parent chain
B15: Tissue-nonspecific alkaline phosphatase (TNALP): N140Q (protein)
parent chain: B1 parent chain
B16: Tissue-nonspecific alkaline phosphatase (TNALP): heterodimeric N140Q/N303Q (protein)
parent chain: B1 parent chain
B17: Tissue-nonspecific alkaline phosphatase (TNALP): N271Q (protein)
parent chain: B1 parent chain
B18: Tissue-nonspecific alkaline phosphatase (TNALP): heterodimeric N230Q/N430D (protein)
parent chain: B1 parent chain
B19: Tissue-nonspecific alkaline phosphatase (TNALP): heterodimeric N230Q/N271Q (protein)
parent chain: B1 parent chain
B20: Tissue-nonspecific alkaline phosphatase (TNALP): heterodimeric N303Q/N430D (protein)
parent chain: B1 parent chain
B21: Tissue-nonspecific alkaline phosphatase (TNALP): heterodimeric N140Q/N271Q (protein)
parent chain: B1 parent chain
B22: Tissue-nonspecific alkaline phosphatase (TNALP): heterodimeric N230Q/N303Q (protein)
parent chain: B1 parent chain
B23: Tissue-nonspecific alkaline phosphatase (TNALP): N230Q/N271Q/N430D (protein)
parent chain: B1 parent chain
B24: Tissue-nonspecific alkaline phosphatase (TNALP): heterodimeric N140Q (protein)
parent chain: B1 parent chain
B25: Tissue-nonspecific alkaline phosphatase (TNALP): N230Q (protein)
parent chain: B1 parent chain
B26: Tissue-nonspecific alkaline phosphatase (TNALP): N430D (protein)
parent chain: B1 parent chain
B27: Tissue-nonspecific alkaline phosphatase (TNALP): heterodimeric N271Q/N303Q (protein)
parent chain: B1 parent chain
B28: Tissue-nonspecific alkaline phosphatase (TNALP): N140Q/N230Q (protein)
parent chain: B1 parent chain
B29: Tissue-nonspecific alkaline phosphatase (TNALP): N230Q/N271Q/N303Q (protein)
parent chain: B1 parent chain
B30: Tissue-nonspecific alkaline phosphatase (TNALP): N303Q (protein)
parent chain: B1 parent chain
B31: Tissue-nonspecific alkaline phosphatase (TNALP): N230Q/N430D (protein)
parent chain: B1 parent chain

How the values were obtained:
[1] = anti-Flag capillary immunoblot of Flag-purified medium, pooled n=6; conditions: glycan lost; control: wild type
[2] = pNPP activity of supernatant, normalised to total protein; homodimeric double mutants; conditions: glycan lost; control: wild type
[3] = weak anion-exchange HPLC with activity-based detection; conditions: glycan lost; control: wild type
[4] = SYPRO Orange thermal shift, pooled purified protein; conditions: glycan lost; control: wild type
[5] = pNPP activity; mutant:WT plasmid 1:1 (heterodimers not confirmed); conditions: glycan lost; control: wild type plasmid only
[6] = remaining pNPP activity after 15 min at 56 °C; homodimeric; conditions: glycan lost; control: wild type
[7] = pNPP activity of supernatant; triple-site mutants; conditions: glycan lost; control: wild type
[8] = remaining pNPP activity after 56 °C; mutant:WT plasmid 1:1; conditions: glycan lost; control: wild type
[9] = pNPP activity of supernatant, normalised to total protein; homodimeric single mutants; conditions: glycan lost; control: wild type

Protein	expression_or_secretion, fold_change [1]	other: HPLC isoform profile [3]	stability_or_folding, Tm [4]	enzymatic_activity, percent_of_wt [5]	other results
B1	decreases, 0.4 vs 1.0	no change	no change, 54.1 vs 54.5	–	enzymatic_activity, other: specific activity [2]: no change, 9.5 ± 6.5 vs 13.6 ± 6.6
B2	decreases, 0.6 vs 1.0	changes	increases, 56.5 vs 54.5	–	enzymatic_activity, other: specific activity [2]: decreases, 7 ± 4.3 vs 13.6 ± 6.6
B3	–	–	–	decreases	–
B4	–	–	–	decreases	–
B5	–	–	–	decreases	–
B6	–	–	–	decreases	–
B7	decreases, 0.7 vs 1.0	changes	increases, 55.3, 69.7 vs 54.5	–	stability_or_folding, other: remaining activity [6]: increases, 63 ± 5 vs 23 ± 4; enzymatic_activity, other: specific activity [2]: decreases, 4.3 ± 3.4 vs 13.6 ± 6.6
B8	–	–	–	–	enzymatic_activity [7]: abolishes
B9	–	–	–	decreases	–
B10	decreases, 0.7 vs 1.0	changes	increases, 55.3, 70.1 vs 54.5	–	stability_or_folding, other: remaining activity [6]: increases, 47 ± 13 vs 23 ± 4; enzymatic_activity, other: specific activity [2]: decreases, 4.7 ± 4 vs 13.6 ± 6.6
B11	decreases, 0.4 vs 1.0	no change	–	–	enzymatic_activity, other: specific activity [2]: decreases, 3.5 ± 2.7 vs 13.6 ± 6.6
B12	–	–	–	decreases	–
B13	–	–	–	decreases	stability_or_folding [8]: no change
B14	decreases, 0.4 vs 1.0	changes	decreases, 52.9 vs 54.5	–	stability_or_folding, other: remaining activity [6]: decreases, 12 ± 1 vs 23 ± 4; enzymatic_activity, other: specific activity [2]: decreases, 3.9 ± 2.8 vs 13.6 ± 6.6
B15	decreases, 0.4 vs 1.0	no change	no change, 54.9 vs 54.5	–	enzymatic_activity, other: specific activity [9]: no change
B16	–	–	–	decreases	–

Protein	expression_or_secretion, fold_change [1]	other: HPLC isoform profile [3]	stability_or_folding, Tm [4]	enzymatic_activity, percent_of_wt [5]	other results
B17	decreases, 0.4 vs 1.0	no change	no change, 54.5 vs 54.5	–	–
B18	–	–	–	no change	–
B19	–	–	–	decreases	–
B20	–	–	–	decreases	stability_or_folding [8]: no change
B21	–	–	–	decreases	–
B22	–	–	–	decreases	–
B23	–	–	–	–	enzymatic_activity [7]: abolishes
B24	–	–	–	decreases	–
B25	decreases, 0.5 vs 1.0	no change	no change, 54.5 vs 54.5	–	enzymatic_activity, other: specific activity [9]: no change
B26	decreases, 0.5 vs 1.0	no change	increases, 55.7 vs 54.5	–	enzymatic_activity, other: specific activity [9]: no change
B27	–	–	–	decreases	stability_or_folding [8]: no change
B28	decreases, 0.5 vs 1.0	–	no change, 54.9 vs 54.5	–	enzymatic_activity, other: specific activity [2]: decreases, 3.8 ± 3.9 vs 13.6 ± 6.6
B29	–	–	–	–	enzymatic_activity [7]: abolishes
B30	decreases, 0.5 vs 1.0	no change	decreases, 53.7 vs 54.5	–	enzymatic_activity, other: specific activity [9]: no change
B31	decreases, 0.6 vs 1.0	changes	increases, 55.7 vs 54.5	–	enzymatic_activity, other: specific activity [2]: no change, 9 ± 6 vs 13.6 ± 6.6
